{"source": "patent US20250121076A1", "about": "“POLYPEPTIDE DRUG CONJUGATE HAVING NOVEL STRUCTURE AND APPLICATION THEREOF” (MEDSHINE DISCOVERY INC., priority 2021, published 2025)", "key": {"[1]": {"assay": "Metabolic stability in hepatocytes", "type": "in vitro ADME, Cynomolgus macaques", "details": "Cynomolgus macaque hepatocytes, 1 μM, 0.5×10^6 cells/mL", "experimental": "To investigate the metabolic stability of the compounds of the present invention in hepatocytes from Cynomolgus macaques and humans.\nIncubations were performed in 96-well plates using an external extraction method. Several 96-well sample precipitation plates, designated T0, T15, T30, T60, T90, T0-MC, T90-MC, and blank matrix, were prepared, respectively. The recovery culture medium and incubation culture medium were removed in advance and placed in a 37° C. water bath for preheating. Frozen hepatocytes from Cynomolgus macaques and humans were removed from a liquid nitrogen tank, recovered, and diluted to 0.51×10^6 cells/mL with the incubation culture medium. […]\nAt the end of the incubation at the corresponding time point, the incubation plates were removed, from which 25 μL of a compound mixture with the cells was removed and added to sample plates containing 125 μL of stop buffer. […] All samples were mixed uniformly and then analyzed by the LC-MS/MS method.\nThe concentration of the compound of the present invention in the sample was semi-quantitatively determined by the liquid chromatography-tandem mass spectrometry (LC-MS/MS) method without a standard curve and quality control sample. […]"}, "[2]": {"assay": "Stability incubated in human plasma for 72 hours", "type": "in vitro ADME, Humans", "experimental": "(§1) The corresponding incubation plates, including T0, T10, T30, T60, T120, and T240 incubation plates, were added with a 2 μL working solution of the compound to be tested (100 μM). Three parallel wells were prepared for each sample. Then, 98 μL of blank plasma from SD rats, Cynomolgus macaques, and humans was added to the corresponding incubation plates to which the working solution had been added. All samples were incubated in a 37° C. water bath. […] At the end of each incubation time point, the corresponding incubation plate was removed, added with stop buffer, precipitated, and centrifuged for 20 minutes. Then, 150 μL of the supernatant was analyzed by the LC-MS/MS method. The concentration of the compound to be tested in the sample was semi-quantitatively determined by the liquid chromatography-tandem mass spectrometry (LC-MS/MS) method.\nThe experimental results obtained using the above method but extending the incubation time of the compound to be tested with human plasma to 72 hours are shown in Table 22."}, "Stability in whole blood": {"assay": "Stability in whole blood", "type": "in vitro ADME, Cynomolgus macaques", "details": "Cynomolgus macaque whole blood, 2 μM, 37° C.", "experimental": "To test the stability of the compounds of the present invention in whole blood from SD rats and Cynomolgus macaques.\nThe corresponding incubation plates, including T0, T10, T30, T60, T120, and T240 incubation plates, were added with a 2 μL working solution of the compound to be tested (100 μM). Three parallel wells were prepared for each sample. Then, 98 μL of blank whole blood from SD rats and Cynomolgus macaques was added to the corresponding incubation plates to which the working solution had been added. All samples were incubated in a 37° C. water bath. […] At the end of each incubation time point, the corresponding incubation plate was removed, added with stop buffer, precipitated, and centrifuged for 20 minutes. Then, 100 μL of the supernatant was diluted with 300 μL of ultrapure water, mixed uniformly, and then analyzed by the LC-MS/MS method. The concentration of the compound to be tested in the sample was semi-quantitatively determined by the liquid chromatography-tandem mass spectrometry (LC-MS/MS) method."}, "Stability in plasma [3]": {"assay": "Stability in plasma", "type": "in vitro ADME, Cynomolgus macaques", "details": "Cynomolgus macaque plasma, 2 μM, 37° C., up to 240 min", "experimental": "(§2) To test the stability of the compounds of the present invention in plasma from rats, Cynomolgus macaques, and humans.\nas §1"}, "[4]": {"assay": "Pharmacokinetic analysis in rat plasma (6.1, 2 mg/kg)", "type": "in vivo, SD rats", "details": "rat, in vivo, SD rats, single IV 2 mg/kg, plasma", "experimental": "Experimental purpose: To test the pharmacokinetics of the compounds of the present invention in SD rats.\n6.1 The pharmacokinetic characteristics of the compound after intravenous injection and oral administration were tested in rats according to a standard protocol. The compound to be tested was formulated into a clear solution using 50 mM acetate buffer (pH=5) in 10% sucrose as a vehicle. Two SD rats were given a single intravenous injection of 2 mg/kg of the compound to be tested. Whole blood was collected at time points of 0.083, 0.25, 0.5, 1, 2, 4, 8, and 24 hours after administration to get plasma. The concentration of the compound to be tested and the concentration of its potential metabolite MMAE were analyzed by the LC-MS/MS method, and the pharmacokinetic parameters were calculated by Phoenix WinNonlin software."}, "Stability in plasma [5]": {"assay": "Stability in plasma", "type": "in vitro ADME, SD rats", "details": "SD rat plasma, 2 μM, 37° C., up to 240 min", "experimental": "as §2, §1"}, "Stability in plasma [6]": {"assay": "Stability in plasma", "type": "in vitro ADME, Humans", "details": "human plasma, 2 μM, 37° C., up to 240 min", "experimental": "as §2, §1"}}, "note": "Structures can show the parent of a compound that is named as a salt. Starred links: 1 amine or outer side, 2 acyl side, 3 side chain; linkers in the order of their positions; H or OH if unused. Positions of bridges follow the written chain, without caps; N, C: chain ends. Non-standard residues stand in square brackets, D forms with d. Residues, ends and D or L forms follow the SMILES beside them. Chains are numbered I, II in the order given. *: point of attachment. TATA = O=C(CC[*:1])N1CN(C(=O)CC[*:2])CN(C(=O)CC[*:3])C1; Dolaproine = CO[C@@H]([C@@H]1CCCN1)[C@@H](C)C(=O)O; Dil = CC[C@H](C)[C@H](NC)[C@@H](CC(=O)O)OC; X2 = O=C(CCCC(=O)[*:2])NCCC(=O)[*:1]; PABC = O=C(OCc1ccc(N[*:1])cc1)[*:2]; X1 = C[C@@H](N*)[C@@H](O)c1ccccc1; Hyp = O=C(O)[C@@H]1C[C@@H](O)CN1; hArg = N=C(N)NCCCC[C@H](N)C(=O)O; Cit = NC(=O)NCCC[C@H](N)C(=O)O; Pen = CC(C)(S)[C@H](N)C(=O)O; NMeV = CN[C@H](C(=O)O)C(C)C; Sar = CNCC(=O)O", "data": [{"smiles": "CC[C@H](C)[C@@H]([C@@H](CC(=O)N1CCC[C@H]1[C@H](OC)[C@@H](C)C(=O)N[C@H](C)[C@@H](O)c1ccccc1)OC)N(C)C(=O)[C@@H](NC(=O)[C@H](C(C)C)N(C)C(=O)OCc1ccc(NC(=O)[C@H](CCCNC(N)=O)NC(=O)[C@@H](NC(=O)CCCC(=O)NCCC(=O)N(C)CC(=O)N(C)CC(=O)N(C)CC(=O)N(C)CC(=O)N(C)CC(=O)N(C)CC(=O)N(C)CC(=O)N(C)CC(=O)N(C)CC(=O)N(C)CC(=O)N[C@H]2CCCCNC(=O)C[C@@H](C(=O)N[C@H]3CSCCC(=O)N4CN5CN(C4)C(=O)CCSC(C)(C)[C@@H](C(N)=O)NC(=O)[C@H](CCCCNC(=N)N)NC(=O)[C@H](Cc4c[nH]c6ccccc46)NC(=O)[C@@H](CC(=O)O)NC(=O)[C@@H]4CCCN4C(=O)[C@H](Cc4c[nH]cn4)NC(=O)[C@H](CC(C)C)NC(=O)[C@H](CSCCC5=O)NC(=O)[C@H](CC(C)C)NC(=O)[C@@H]4CCCN4C(=O)[C@H](CC(N)=O)NC(=O)[C@H](C(C)C)NC(=O)[C@H](CC(C)C)NC(=O)[C@@H]4C[C@@H](O)CN4C3=O)NC(=O)[C@H](CCCCNC(=N)N)NC2=O)C(C)C)cc1)C(C)C", "note": "[Acetate salt of PDC_8] (I: [Sar][Sar][Sar][Sar][Sar][Sar][Sar][Sar][Sar][Sar]K[hArg]DC[Hyp]LVNPLCLHP[dD]W[hArg][Pen]-NH2 / II: V[Cit][PABC][NMeV]V[Dil][Dolaproine]-X1; lactam I:11-I:13; linker I:14-I:21-I:28 via TATA; linker I:N-II:N via X2)", "values": [{"measurement": "half-life", "setting": "[1]", "result": "> 3.61", "unit": "h"}, {"measurement": "CLint scaled", "setting": "[1]; read-out: CLint (liver)", "result": "< 23", "unit": "mL/min/kg"}, {"measurement": "MMAE generation %", "setting": "[2]; test time point 0", "result": 0.1, "unit": "%"}, {"measurement": "PDC_8 remaining %", "setting": "[2]; test time point 0", "result": 100.0, "unit": "%"}, {"measurement": "MMAE generation %", "setting": "[2]; test time point 0.5", "result": 0.2, "unit": "%"}, {"measurement": "remaining at 0.5 h, 2 µM", "setting": "[2]; test time point 0.5, read-out: PDC_8 remaining %", "result": 96.3, "unit": "%"}, {"measurement": "MMAE generation %", "setting": "[2]; test time point 1", "result": 0.5, "unit": "%"}, {"measurement": "remaining at 1 h, 2 µM", "setting": "[2]; test time point 1, read-out: PDC_8 remaining %", "result": 103, "unit": "%"}, {"measurement": "MMAE generation %", "setting": "[2]; test time point 2", "result": 0.5, "unit": "%"}, {"measurement": "remaining at 2 h, 2 µM", "setting": "[2]; test time point 2, read-out: PDC_8 remaining %", "result": 86.6, "unit": "%"}, {"measurement": "MMAE generation %", "setting": "[2]; test time point 4", "result": 0.6, "unit": "%"}, {"measurement": "remaining at 4 h, 2 µM", "setting": "[2]; test time point 4, read-out: PDC_8 remaining %", "result": 101, "unit": "%"}, {"measurement": "MMAE generation %", "setting": "[2]; test time point 24", "result": 0.6, "unit": "%"}, {"measurement": "remaining at 24 h, 2 µM", "setting": "[2]; test time point 24, read-out: PDC_8 remaining %", "result": 89.9, "unit": "%"}, {"measurement": "MMAE generation %", "setting": "[2]; test time point 48", "result": 0.0, "unit": "%"}, {"measurement": "remaining at 48 h, 2 µM", "setting": "[2]; test time point 48, read-out: PDC_8 remaining %", "result": 96, "unit": "%"}, {"measurement": "MMAE generation %", "setting": "[2]; test time point 72", "result": 3.2, "unit": "%"}, {"measurement": "remaining at 72 h, 2 µM", "setting": "[2]; test time point 72, read-out: PDC_8 remaining %", "result": 78, "unit": "%"}, {"measurement": "half-life", "setting": "Stability in whole blood", "result": "> 9.63", "unit": "h"}, {"measurement": "half-life", "setting": "Stability in plasma [3]", "result": "> 9.63", "unit": "h"}, {"measurement": "AUC(0-t)", "setting": "[4]", "result": 0.518, "unit": "µM·h"}, {"measurement": "C0", "setting": "[4]", "result": 1670, "unit": "nM"}, {"measurement": "clearance", "setting": "[4]", "result": 14.4, "unit": "mL/min/kg"}, {"measurement": "half-life", "setting": "[4]", "result": 0.29, "unit": "h"}, {"measurement": "Vd", "setting": "[4]; read-out: Vdss", "result": 0.28, "unit": "L/kg"}, {"measurement": "half-life", "setting": "Stability in plasma [5]", "result": "> 9.63", "unit": "h"}, {"measurement": "half-life", "setting": "Stability in plasma [6]", "result": "> 9.63", "unit": "h"}]}]}
